Measurements taken from publication PMC10980755, “Cooperative nucleic acid binding by Poly ADP-ribose polymerase 1”.

Tests used:
WT-PARP1 (full-length) [1] = biological target: T1, WT-PARP1 (full-length) (UniProt P09874 1-1014); experiment: EMSA; monomer-equivalent Kmono; n=4.1±0.2; ω=82.6±20.5; EMSA: 25 mM Tris pH 8.0, 150 mM NaCl, 50 mM arginine, 1 mM EDTA, 0.1 mM TCEP, 1 mg/mL BSA, 20 °C, 30 min; 0.06 µM nucleic acid; details: protein: recombinant; tags: His; label: 5'-32P on one strand (EMSA); unlabeled in AUC; blunt
T1 sequence (P09874 whole entry): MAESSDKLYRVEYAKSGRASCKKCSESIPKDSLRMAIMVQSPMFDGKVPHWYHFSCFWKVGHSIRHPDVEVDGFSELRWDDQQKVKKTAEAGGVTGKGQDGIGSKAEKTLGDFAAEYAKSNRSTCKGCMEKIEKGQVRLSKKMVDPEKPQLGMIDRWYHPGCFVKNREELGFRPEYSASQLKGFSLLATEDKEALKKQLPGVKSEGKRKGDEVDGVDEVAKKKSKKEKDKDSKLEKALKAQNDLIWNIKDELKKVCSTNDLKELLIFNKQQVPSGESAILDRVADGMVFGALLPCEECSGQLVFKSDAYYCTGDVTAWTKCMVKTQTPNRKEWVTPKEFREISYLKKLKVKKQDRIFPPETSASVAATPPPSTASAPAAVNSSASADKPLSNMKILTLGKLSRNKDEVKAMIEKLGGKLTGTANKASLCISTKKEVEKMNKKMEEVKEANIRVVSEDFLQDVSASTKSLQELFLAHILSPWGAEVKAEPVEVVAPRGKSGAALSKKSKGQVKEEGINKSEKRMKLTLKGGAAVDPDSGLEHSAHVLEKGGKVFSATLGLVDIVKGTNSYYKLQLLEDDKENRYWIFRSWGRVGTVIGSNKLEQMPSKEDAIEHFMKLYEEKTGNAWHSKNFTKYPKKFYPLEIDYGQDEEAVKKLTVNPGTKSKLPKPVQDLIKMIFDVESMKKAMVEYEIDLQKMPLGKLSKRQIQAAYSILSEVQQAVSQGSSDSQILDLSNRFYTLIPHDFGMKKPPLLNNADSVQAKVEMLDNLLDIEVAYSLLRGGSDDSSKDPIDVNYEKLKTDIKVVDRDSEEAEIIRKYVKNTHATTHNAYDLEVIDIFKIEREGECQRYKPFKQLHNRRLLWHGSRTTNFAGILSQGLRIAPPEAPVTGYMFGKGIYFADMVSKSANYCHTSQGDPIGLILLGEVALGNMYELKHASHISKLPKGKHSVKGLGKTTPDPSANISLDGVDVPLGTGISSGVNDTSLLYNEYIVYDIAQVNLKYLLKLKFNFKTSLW

∆CAT-PARP1 [2] = biological target: T2, ∆CAT-PARP1 (UniProt P09874 1-662, del663-1014); experiment: EMSA; monomer-equivalent Kmono; n=3.9±0.2; ω=139.9±59.5; EMSA: 25 mM Tris pH 8.0, 150 mM NaCl, 50 mM arginine, 1 mM EDTA, 0.1 mM TCEP, 1 mg/mL BSA, 20 °C, 30 min; 0.06 µM nucleic acid; details: protein: recombinant; tags: His; label: 5'-32P on one strand (EMSA); unlabeled in AUC; blunt
T2 sequence (P09874 1-662, stated change not applied): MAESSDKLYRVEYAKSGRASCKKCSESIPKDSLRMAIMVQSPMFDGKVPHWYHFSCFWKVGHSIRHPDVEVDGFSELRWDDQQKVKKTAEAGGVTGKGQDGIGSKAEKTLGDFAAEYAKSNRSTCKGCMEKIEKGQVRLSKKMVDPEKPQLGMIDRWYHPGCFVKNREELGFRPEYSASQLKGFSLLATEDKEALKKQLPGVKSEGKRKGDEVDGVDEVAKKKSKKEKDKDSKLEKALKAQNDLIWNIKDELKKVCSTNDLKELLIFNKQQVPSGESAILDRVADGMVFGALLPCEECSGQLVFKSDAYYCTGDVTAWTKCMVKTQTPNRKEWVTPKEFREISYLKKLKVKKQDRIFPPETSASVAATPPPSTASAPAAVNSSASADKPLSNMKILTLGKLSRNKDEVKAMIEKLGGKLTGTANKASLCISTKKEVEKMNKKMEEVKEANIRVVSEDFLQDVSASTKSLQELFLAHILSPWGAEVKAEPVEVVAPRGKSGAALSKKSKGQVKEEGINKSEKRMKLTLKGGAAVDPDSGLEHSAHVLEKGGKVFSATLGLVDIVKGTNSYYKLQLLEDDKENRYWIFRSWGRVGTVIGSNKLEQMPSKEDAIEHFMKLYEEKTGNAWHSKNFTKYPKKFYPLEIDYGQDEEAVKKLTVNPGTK

∆Zn1∆Zn2-PARP1 [3] = biological target: T3, ∆Zn1∆Zn2-PARP1 (UniProt P09874 216-1014, del1-215); experiment: sedimentation velocity AUC; 10 mM Tris pH 8.0, 100 mM NaCl, 4 °C; 1.8 µM DNA, 7.2 µM protein; reaction boundary, rapid equilibrium; EMSA: 25 mM Tris pH 8.0, 150 mM NaCl, 50 mM arginine, 1 mM EDTA, 0.1 mM TCEP, 1 mg/mL BSA, 20 °C, 30 min; 0.06 µM nucleic acid; details: protein: recombinant; tags: His; label: 5'-32P on one strand (EMSA); unlabeled in AUC; blunt
T3 sequence (P09874 216-1014, stated change not applied): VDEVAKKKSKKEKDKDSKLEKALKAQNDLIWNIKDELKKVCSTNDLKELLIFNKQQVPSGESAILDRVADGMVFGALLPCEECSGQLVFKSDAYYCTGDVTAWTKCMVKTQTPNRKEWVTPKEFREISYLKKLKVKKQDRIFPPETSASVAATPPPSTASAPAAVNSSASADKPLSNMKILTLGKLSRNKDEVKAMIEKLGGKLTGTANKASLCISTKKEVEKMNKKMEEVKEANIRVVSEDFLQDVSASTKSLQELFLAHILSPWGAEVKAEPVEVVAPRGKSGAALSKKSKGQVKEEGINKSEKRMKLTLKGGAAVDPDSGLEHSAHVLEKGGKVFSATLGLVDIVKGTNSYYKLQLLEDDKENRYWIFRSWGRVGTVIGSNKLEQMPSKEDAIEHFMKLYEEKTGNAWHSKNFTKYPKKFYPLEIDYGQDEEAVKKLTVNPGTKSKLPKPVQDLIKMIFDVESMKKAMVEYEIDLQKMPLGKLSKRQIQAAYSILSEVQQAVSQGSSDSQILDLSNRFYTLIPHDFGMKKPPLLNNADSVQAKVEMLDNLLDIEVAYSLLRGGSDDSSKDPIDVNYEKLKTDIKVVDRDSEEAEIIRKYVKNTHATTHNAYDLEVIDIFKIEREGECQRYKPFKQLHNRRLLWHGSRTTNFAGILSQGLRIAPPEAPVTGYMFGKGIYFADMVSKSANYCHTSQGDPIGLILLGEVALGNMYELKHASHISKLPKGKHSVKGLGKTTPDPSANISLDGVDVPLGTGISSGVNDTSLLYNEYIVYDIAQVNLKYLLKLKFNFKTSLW

∆CAT-PARP1 [4] = biological target: T2, ∆CAT-PARP1; experiment: EMSA; Kmono; n=1.0±0.1; EMSA: 25 mM Tris pH 8.0, 150 mM NaCl, 50 mM arginine, 1 mM EDTA, 0.1 mM TCEP, 1 mg/mL BSA, 20 °C, 30 min; 0.06 µM nucleic acid; details: protein: recombinant; tags: His; label: 5'-32P
WT-PARP1 (full-length) [5] = biological target: T1, WT-PARP1 (full-length); experiment: EMSA; monomer-equivalent Kmono; n=1.8±0.1; ω=24.7±8.6; EMSA: 25 mM Tris pH 8.0, 150 mM NaCl, 50 mM arginine, 1 mM EDTA, 0.1 mM TCEP, 1 mg/mL BSA, 20 °C, 30 min; 0.06 µM nucleic acid; details: protein: recombinant; tags: His; label: 5'-32P
∆Zn1∆Zn2-PARP1 [6] = biological target: T3, ∆Zn1∆Zn2-PARP1; experiment: EMSA; monomer-equivalent Kmono; n=1.7±0.1; ω=56.7±14.4; EMSA: 25 mM Tris pH 8.0, 150 mM NaCl, 50 mM arginine, 1 mM EDTA, 0.1 mM TCEP, 1 mg/mL BSA, 20 °C, 30 min; 0.06 µM nucleic acid; details: protein: recombinant; tags: His; label: 5'-Cy3
∆CAT-PARP1 [7] = biological target: T2, ∆CAT-PARP1; experiment: EMSA; monomer-equivalent Kmono; n=1.9±0.1; ω=49.0±12.9; EMSA: 25 mM Tris pH 8.0, 150 mM NaCl, 50 mM arginine, 1 mM EDTA, 0.1 mM TCEP, 1 mg/mL BSA, 20 °C, 30 min; 0.06 µM nucleic acid; details: protein: recombinant; tags: His; label: 5'-Cy3
WT-PARP1 (full-length) [8] = biological target: T1, WT-PARP1 (full-length); experiment: EMSA; monomer-equivalent Kmono; n=2.2±0.1; ω=51.4±10.1; EMSA: 25 mM Tris pH 8.0, 150 mM NaCl, 50 mM arginine, 1 mM EDTA, 0.1 mM TCEP, 1 mg/mL BSA, 20 °C, 30 min; 0.06 µM nucleic acid; details: protein: recombinant; tags: His; label: 5'-Cy3
∆Zn1∆Zn2-PARP1 [9] = biological target: T3, ∆Zn1∆Zn2-PARP1; experiment: EMSA; monomer-equivalent Kmono; n=2.9±0.2; ω=104.3±31.1; EMSA: 25 mM Tris pH 8.0, 150 mM NaCl, 50 mM arginine, 1 mM EDTA, 0.1 mM TCEP, 1 mg/mL BSA, 20 °C, 30 min; 0.06 µM nucleic acid; details: protein: recombinant; tags: His; label: 5'-32P
WT-PARP1 (full-length) [10] = biological target: T1, WT-PARP1 (full-length); experiment: EMSA; monomer-equivalent Kmono; n=1.9±0.2; ω=67.3±10.8; EMSA: 25 mM Tris pH 8.0, 150 mM NaCl, 50 mM arginine, 1 mM EDTA, 0.1 mM TCEP, 1 mg/mL BSA, 20 °C, 30 min; 0.06 µM nucleic acid; details: protein: recombinant; tags: His; label: 5'-32P
∆CAT-PARP1 [11] = biological target: T2, ∆CAT-PARP1; experiment: EMSA; monomer-equivalent Kmono; n=1.8±0.1; ω=86.1±20.3; EMSA: 25 mM Tris pH 8.0, 150 mM NaCl, 50 mM arginine, 1 mM EDTA, 0.1 mM TCEP, 1 mg/mL BSA, 20 °C, 30 min; 0.06 µM nucleic acid; details: protein: recombinant; tags: His; label: 5'-32P

B1: ds19-mer DNA (dsDNA)
DNA 1: CGTACGCGGGTTTAAACGA
DNA 2: TCGTTTAAACCCGCGTACG
Ka (WT-PARP1 (full-length) [1]): 1.2e+07 M⁻¹
Ka (∆CAT-PARP1 [2]): 1.3e+07 M⁻¹
binding result (∆Zn1∆Zn2-PARP1 [3]): binds

CGTACGCGGGTTTAAACGA (ssDNA) [ss19-mer DNA]
Ka (∆CAT-PARP1 [4]): 114000 M⁻¹
Ka (WT-PARP1 (full-length) [5]): 3.3e+06 M⁻¹

TTTTTTTTTTTTTTTTTTTT (ssDNA) [Cy3-T20 DNA]
Ka (∆Zn1∆Zn2-PARP1 [6]): 2.5e+06 M⁻¹
Ka (∆CAT-PARP1 [7]): 3.3e+06 M⁻¹
Ka (WT-PARP1 (full-length) [8]): 1.3e+07 M⁻¹

UUUUUUUUUUUUUUUUUUUU (ssRNA) [U20 RNA]
Ka (∆Zn1∆Zn2-PARP1 [9]): 9.1e+07 M⁻¹
Ka (WT-PARP1 (full-length) [10]): 2.1e+08 M⁻¹
Ka (∆CAT-PARP1 [11]): 6.6e+06 M⁻¹
